We go through one substance from PMC7790862.

The target in the experiment is HA-tagged human Junctophilin-2 with seven point mutations in the Joining region (Ad-mut^PG1JPH2) (human) (UniProt Q9BR39). Briefly: co-IP + proximity ligation.

As for “L-type Ca2+ channel pore-forming subunit α1C (natural protein)”, the percent reduction of the interaction against WT-JPH2 fell in the range of 30 to 40%.
